According to PMC6405950, “Structure-function relationship of a citrus salicylate methylesterase and role of salicylic acid in citrus canker resistance” (Scientific Reports, 2019):
Substitutions are numbered along the chain they refer to. In names and notes the source's numbering stands. Values belong to the molecule of their own block, whether it stands above or below them.

Assays:
CsMES1 = biological target: T1, CsMES1 (Citrus sinensis, UniProt A0A067GV78); assay: ITC; also esterase inhibition (IC50 […] at […] MeSA); type: binding
T1 construct: gene CISIN_1g024065mg; recombinant CsMES1 (KDO79352) from pET28a in E. coli
T1 sequence (A0A067GV78 1-267): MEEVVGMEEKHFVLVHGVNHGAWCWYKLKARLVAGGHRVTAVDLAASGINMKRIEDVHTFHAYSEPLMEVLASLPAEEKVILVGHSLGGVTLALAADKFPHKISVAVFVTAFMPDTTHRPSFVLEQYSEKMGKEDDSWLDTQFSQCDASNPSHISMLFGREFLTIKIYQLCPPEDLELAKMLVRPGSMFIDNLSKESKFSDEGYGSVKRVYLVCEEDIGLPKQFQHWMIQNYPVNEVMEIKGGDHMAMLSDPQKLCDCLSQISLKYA

CsMES1 V18A = biological target: T2, CsMES1 V18A (Citrus sinensis, UniProt A0A067GV78, V18A); assay: biochemical; type: binding
T2 construct: gene CISIN_1g024065mg; recombinant CsMES1 (KDO79352) from pET28a in E. coli
T2 sequence (A0A067GV78 1-267 V18A): T1 sequence (A0A067GV78 1-267) with V18A

CsMES1 V18S = biological target: T3, CsMES1 V18S (Citrus sinensis, UniProt A0A067GV78, V18S); assay: biochemical; type: binding
T3 construct: gene CISIN_1g024065mg; optimized CsMES1 V18S synthetic gene in pET28a, recombinant from E. coli
T3 sequence (A0A067GV78 1-267 V18S): T1 sequence (A0A067GV78 1-267) with V18S

[1] = biological target: Citrus sinensis salicylate methylesterase CsMES1 (recombinant, wild type) (Citrus sinensis); assay: SEC; analytical gel filtration on Superdex 75 10/300 in SEC buffer (137 mM NaCl, 10 mM Na2HPO4, 2.7 mM KCl, 2 mM KH2PO4, pH 7.5); mass estimated from standards (bovine serum albumin, ovalbumin, lysozyme)
[2] = substrate: COC(=O)c1ccccc1O; assay: MeSA esterase kinetics, SA fluorescence (Km); type: biochemical, Citrus sinensis; conditions: active site

Molecule: O=C(c1ccccc1)C(F)(F)F [TriFA, 2,2,2-Trifluoroacetophenone]
- Kd (CsMES1): 7100 nM
- Kd (CsMES1 V18A): ~300 nM
- Kd (CsMES1 V18S): ~300 nM

- stoichiometry N [1]: 2
Molecule: Citrus sinensis salicylate methylesterase CsMES1 (recombinant, wild type) (enzyme)

B1: CsMES1 (Citrus sinensis) (protein)
chain: T1 sequence (A0A067GV78 1-267)
notes: recombinant CsMES1 (KDO79352) from pET28a in E. coli
- Km [2]: 48.9 ± 15.63 µM
- kcat [2]: 0.38 ± 0.06 s⁻¹

B2: CsMES1 V18S (Citrus sinensis; V18S) (protein)
chain: T1 sequence (A0A067GV78 1-267) with V18S
notes: optimized CsMES1 V18S synthetic gene in pET28a, recombinant from E. coli
- Km [2]: 16.1 ± 0.23 µM

B3: CsMES1 V18A (Citrus sinensis; V18A) (protein)
chain: T1 sequence (A0A067GV78 1-267) with V18A
notes: as for B1
- Km [2]: 11.7 ± 0.97 µM
